Experimental data from doi:10.1101/2024.03.07.583918.

B1: GWQRF pentapeptide (peptide)
peptide: GWQRF
B2: NWTTF pentapeptide (peptide)
peptide: NWTTF
B3: GWTTF pentapeptide with substitution of G by D at position 1 (peptide)
peptide: DWTTF
B4: GWEKF pentapeptide (peptide)
peptide: GWEKF
B5: DWTSF pentapeptide (peptide)
peptide: DWTSF
B6: GWTTF pentapeptide (peptide)
peptide: GWTTF
B7: NWETF pentapeptide (peptide)
peptide: NWETF

Target: CheR of Pectobacterium atrosepticum SCRI1043 (Pectobacterium atrosepticum SCRI1043)
Test: ITC

Point of comparison: B4, Kd 200 nM. Against it:
- B1 — 2.7-fold higher, 540 nM
- B2 — 5-fold higher, 1000 nM
- B5 — 1.8-fold higher, 360 nM
- B6 — 2.2-fold lower, 90 nM
- B7 — 2.4-fold higher, 480 nM

B3 was tested, and the fold decrease in affinity against GWTTF was 2.6 fold.
